Data reported in patent publication US20140141415A1.

Assays:
[1] = target: GFP 1-9 OPT (Aequorea victoria); assay: split GFP complementation, sandwich format
[2] = target: sulfite reductase-GFP S11 wild type (Pyrobaculum aerophilum; Aequorea victoria); assay: split GFP complementation in vitro, soluble lysate with excess purified fusion protein

| fold increase of complementation rate compared to the starting strand construct [1] | fold improvement of in vitro complementation relative to the same amount of refolded superfolder GFP 1-10 [2] | Substance |
| --- | --- | --- |
| 20 fold |  | (GFP S10 SM5)-L1-sulfite reductase-L2-(GFP S11 SM5) |
|  | 80 fold | GFP 1-10 OPT |
